Target: T1, BiP-Sepharose (Homo sapiens, UniProt P11021)
T1 construct: The human BiP gene except the signal peptide encoding region was obtained from Geneart (Germany); linker […]; made in house; host or cells: HEK 293E cells, transient transfection, PABC674 vector; secreted into the medium
Assay: BiP-Sepharose extraction of proteins from patient plasma, serum, synovial fluid and mass-spectrometric identification
Format: binding
Method: BiP was coated on CNBr-Sepharose (GE-Healthcare, Amersham Biosciences). Immobilization of BiP was performed essentially as described elsewhere in this application for NHS-Sepharose. CNBr-matrix was dissolved at 200 mg/ml in 1 mM HCl and treated the same as the NHS-matrix, except for an additional 5 minutes activation step in 1 mM HCl on a roller device before washing in this buffer. BiP was diluted in immobilization buffer (50 mM NaCl and 40 mM NaHCO3) to a concentration of 820 μg/ml. A total volume of 2 ml BiP solution (1640 μg BiP) was incubated with 360 mg beads. Negative control matrix was exposed to immobilization buffer, only. After overnight immobilization matrix was blocked with Tris and washed.
Six samples were incubated with the BiP-Sepharose, IgIV-Sepharose and the control-Sepharose: Normal pooled plasma, plasma of a patient I or of a patient II, with AL amyloidosis, serum of a patient III with RA (Rheumatoid Factor (RF) titer 682), control serum and synovial fluid of a patient IV with RA (RF titer 23). All samples were diluted 20× in HBS and applied to 200 μl beads in two volumes of 500 μl. One volume was incubated for 4 h at RT and supernatant was discarded after centrifugation (2 minutes at 1400 rpm). Subsequently, the second volume was applied to the same matrix and incubated overnight on a roller device at 4° C. […] To collect the eluates, the matrices were centrifuged and the two eluates were pooled for each sample.
Protein digests were desalted as described (Rappsilber et al., 2003), vacuum dried and dissolved in 2.5% formic acid.
For analysis of peptide mixtures, an Agilent 1100 HPLC system (Agilent Technologies) connected to a Thermo Finnigan LTQ-MS (Thermo Electron, Bremen, Germany) was used. Protein digests were injected on a trap column (Reprosil C18 RP (Dr Maisch, Germany), 20 mm×100 μm I.D.) at 5 μl/minute. Subsequently, the peptides were transferred with a split-reduced flow rate of 100 nL/minute solvent A (0.1 M acetic acid) on the analytical column (Reprosil C18 RP, 20 cm×50 μm I.D.). […] The column effluent was directly introduced into the ESI source of the mass spectrometer via a butt-connected nano-ESI emitter (New Objectives, Woburn, Mass.). The mass spectrometer was operated in the positive ion mode and parent ions were selected for fragmentation in data-dependent mode.
After mass spectrometric measurements, peak lists were generated using BioWorks software (Thermo Electron, Bremen, Germany). Protein identification was performed using Mascot software (www.matrixscience.com) by searching the IPIhuman database (version 3.24, downloaded from ftp://ftp.ebi.ac.uk/pub/databases/IPI/current) using the following settings: fully tryptic peptides, peptide tolerance 0.8 Da, MS/MS tolerance 0.9 Da, 1 missed cleavage allowed, carbamidomethyl (Cys) and oxidation (Met) as fixed and variable modification, respectively. The Scaffold software package (www.proteomesoftware.com) was used to parse the data and to filter peptides at a confidence level of 95%, allowing only protein identification with at least 2 peptides identified.

[1] = Sample B3: eluate of BiP-Sepharose contacted with AL amyloidosis patient II plasma
[2] = Sample B4: eluate of BiP-Sepharose contacted with RA patient III serum

T1 sequence (P11021 19-654): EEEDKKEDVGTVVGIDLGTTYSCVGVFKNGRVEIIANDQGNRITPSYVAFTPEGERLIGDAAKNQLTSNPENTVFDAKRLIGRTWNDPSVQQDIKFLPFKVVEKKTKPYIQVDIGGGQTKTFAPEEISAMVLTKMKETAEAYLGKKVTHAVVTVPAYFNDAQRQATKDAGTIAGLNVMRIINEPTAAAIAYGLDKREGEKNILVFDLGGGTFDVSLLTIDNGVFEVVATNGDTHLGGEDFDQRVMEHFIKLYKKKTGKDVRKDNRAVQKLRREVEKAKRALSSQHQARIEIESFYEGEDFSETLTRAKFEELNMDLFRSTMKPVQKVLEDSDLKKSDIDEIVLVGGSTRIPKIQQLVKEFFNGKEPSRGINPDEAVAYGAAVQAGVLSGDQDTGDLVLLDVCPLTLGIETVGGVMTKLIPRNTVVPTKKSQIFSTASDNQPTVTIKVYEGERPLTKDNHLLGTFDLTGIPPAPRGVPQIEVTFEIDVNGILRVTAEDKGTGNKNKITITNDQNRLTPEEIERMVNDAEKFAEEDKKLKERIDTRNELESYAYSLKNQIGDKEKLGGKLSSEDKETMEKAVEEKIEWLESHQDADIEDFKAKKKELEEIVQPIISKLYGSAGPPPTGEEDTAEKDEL

# of peptides in sample A# [1] | # of peptides in sample A# [2] | # of peptides in sample A# (Sample B2: eluate of BiP-Sepharose contacted with AL amyloidosis patient I plasma) | Molecule
2 | 1 |  | V1-3 protein (Fragment) (protein) QSALTQPRSVSGSPGQSVTISCTGTSSDVGGYNYVSWYQQHPGKAPKLMIYDVSKRPSGVPDRFSGSKSGNTASLTISGLQAEDEADYYCCSYAGSYTFH
2 |  | 2 | Immunoglobulin heavy constant gamma 3 (G3m marker)/Ig gamma-3 chain C region (Heavy chain disease protein, HDC) (protein) ASTKGPSVFPLAPCSRSTSGGTAALGCLVKDYFPEPVTVSWNSGALTSGVHTFPAVLQSSGLYSLSSVVTVPSSSLGTQTYTCNVNHKPSNTKVDKRVELKTPLGDTTHTCPRCPEPKSCDTPPPCPRCPEPKSCDTPPPCPRCPEPKSCDTPPPCPRCPAPELLGGPSVFLFPPKPKDTLMISRTPEVTCVVVDVSHEDPEVQFKWYVDGVEVHNAKTKPREEQYNSTFRVVSVLTVLHQDWLNGKEYKCKVSNKALPAPIEKTISKTKGQPREPQVYTLPPSREEMTKNQVSLTCLVKGFYPSDIAVEWESSGQPENNYNTTPPMLDSDGSFFLYSKLTVDKSRWQQGNIFSCSVMHEALHNRFTQKSLSLSPGK
4 | 10 |  | Immunoglobulin heavy constant mu/Full-length cDNA clone CS0DD006YL02 of Neuroblastoma of Homo sapiens (protein, UniProt P01871 1-474, looked up) Immunoglobulin heavy constant …: GSASAPTLFPLVSCENSPSDTSSVAVGCLAQDFLPDSITFSWKYKNNSDISSTRGFPSVLRGGKYAATSQVLLPSKDVMQGTDEHVVCKVQHPNGNKEKNVPLPVIAELPPKVSVFVPPRDGFFGNPRKSKLICQATGFSPRQIQVSWLREGKQVGSGVTTDQVQAEAKESGPTTYKVTSTLTIKESDWLGQSMFTCRVDHRGLTFQQNASSMCVPDQDTAIRVFAIPPSFASIFLTKSTKLTCLVTDLTTYDSVTISWTRQNGEAVKTHTNISESHPNATFSAVGEASICEDDWNSGERFTCTVTHTDLPSPLKQTISRPKGVALHRPDVYLLPPAREQLNLRESATITCLVTGFSPADVFVQWMQRGQPLSPEKYVTSAPMPEPQAPGRYFAHSILTVSEEEWNTGETYTCVVAHEALPNRVTERTVDKSTEGEVSADEEGFENLWATASTFIVLFLLSLFYSTTVTLFKVK
 | 1 |  | CD5 antigen-like precursor (SP-alpha, CT-2, IgM-associated peptide)/CD5 molecule-like (protein) SPSGVRLVGGLHRCEGRVEVEQKGQWGTVCDDGWDIKDVAVLCRELGCGAASGTPSGILYEPPAEKEQKVLIQSVSCTGTEDTLAQCEQEEVYDCSHDEDAGASCENPESSFSPVPEGVRLADGPGHCKGRVEVKHQNQWYTVCQTGWSLRAAKVVCRQLGCGRAVLTQKRCNKHAYGRKPIWLSQMSCSGREATLQDCPSGPWGKNTCNHDEDTWVECEDPFDLRLVGGDNLCSGRLEVLHKGVWGSVCDDNWGEKEDQVVCKQLGCGKSLSPSFRDRKCYGPGVGRIWLDNVRCSGEEQSLEQCQHRFWGFHDCTHQEDVAVICSG
 | 2 |  | Ig lambda chain V-III region SH (protein) SELTQDPAVSVALGQTVRITCQGDSLRSYYASWYQQKPGQAPVLVIYGKNNRPSGIPDRFSGSSSGNTASLTITGAQAEDEADYYCNSRDSS
 | 2 |  | Dapper homolog 1 (hDPR1) (Heptacellular carcinoma novel gene 3)/Dapper, antagonist of beta-catenin, homolog 1 (Xenopus laevis) (protein) MKPSPAGTAKELEPPAPARGEQRTAEPEGRWREKGEADTERQRTRERQEATLAGLAELEYLRQRQELLVRGALRGAGGAGAAAPRAGELLGEAAQRSRLEEKFLEENILLLRKQLNCLRRRDAGLLNQLQELDKQISDLRLDVEKTSEEHLETDSRPSSGFYELSDGASGSLSNSSNSVFSECLSSCHSSTCFCSPLEATLSLSDGCPKSADLIGLLEYKEGHCEDQASGAVCRSLSTPQFNSLDVIADVNPKYQCDLVSKNGNDVYRYPSPLHAVAVQSPMFLLCLTGNPLREEDRLGNHASDICGGSELDAVKTDSSLPSPSSLWSASHPSSSKKMDGYILSLVQKKTHPVRTNKPRTSVNADPTKGLLRNGSVCVRAPGGVSQGNSVNLKNSKQACLPSGGIPSLNNGTFSPPKQWSKESKAEQAESKRVPLPEGCPSGAASDLQSKHLPKTAKPASQEHARCSAIGTGESPKESAQLSGASPKESPSRGPAPPQENKVVQPLKKMSQKNSLQGVPPATPPLLSTAFPVEERPALDFKSEGSSQSLEEAHLVKAQFIPGQQPSVRLHRGHRNMGVVKNSSLKHRGPALQGLENGLPTVREKTRAGSKKCRFPDDLDTNKKLKKASSKGRKSGGGPEAGVPGRPAGGGHRAGSRAHGHGREAVVAKPKHKRTDYRRWKSSAEISYEEALRRARRGRRENVGLYPAPVPLPYASPYAYVASDSEYSAECESLFHSTVVDTSEDEQSNYTTNCFGDSESSVSEGEFVGESTTTSDSEESGGLIWSQFVQTLPIQTVTAPDLHNHPAKTFVKIKASHNLKKKILRFRSGSLKLMTTV
1 |  |  | Complement factor H-related protein 3 precursor/Complement factor H-related 3 (FHR-3, H factor-like protein 3, DOWN16)/Complement factor H-related 3, isoform CRA_c (protein) QVKPCDFPDIKHGGLFHENMRRPYFPVAVGKYYSYYCDEHFETPSGSYWDYIHCTQNGWSPAVPCLRKCYFPYLENGYNQNYGRKFVQGNSTEVACHPGYGLPKAQTTVTCTEKGWSPTPRCIRVRTCSKSDIEIENGFISESSSIYILNKEIQYKCKPGYATADGNSSGSITCLQNGWSAQPICINSSEKCGPPPPISNGDTTSFLLKVYVPQSRVEYQCQPYYELQGSNYVTCSNGEWSEPPRCIHPCIITEENMNKNNIKLKGRSDRKYYAKTGDTIEFMCKLGYNANTSILSFQAVCREGIVEYPRCE
2 | 17 |  | CDNA FLJ90170 fis, clone MAMMA1000370, highly similar to Ig alpha-1 chain C region/Immunoglobulin heavy constant alpha 1 (protein, UniProt P01876 1-398, looked up) Immunoglobulin heavy constant …: ASPTSPKVFPLSLCSTQPDGNVVIACLVQGFFPQEPLSVTWSESGQGVTARNFPPSQDASGDLYTTSSQLTLPATQCLAGKSVTCHVKHYTNPSQDVTVPCPVPSTPPTPSPSTPPTPSPSCCHPRLSLHRPALEDLLLGSEANLTCTLTGLRDASGVTFTWTPSSGKSAVQGPPERDLCGCYSVSSVLPGCAEPWNHGKTFTCTAAYPESKTPLTATLSKSGNTFRPEVHLLPPPSEELALNELVTLTCLARGFSPKDVLVRWLQGSQELPREKYLTWASRQEPSQGTTTFAVTSILRVAAEDWKKGDTFSCMVGHEALPLAFTQKTIDRLADWQMPPPYVVLDLPQETLEEETPGANLWPTTITFLTLFLLSLFYSTALTVTSVRGPSGNREGPQY
 | 14 |  | Hypothetical protein DKFZp686I04196 (Fragment)/Immunoglobulin heavy constant gamma 2 (G2m marker)/Ig gamma-2 chain C region (protein) ASTKGPSVFPLAPCSRSTSESTAALGCLVKDYFPEPVTVSWNSGALTSGVHTFPAVLQSSGLYSLSSVVTVPSSNFGTQTYTCNVDHKPSNTKVDKTVERKCCVECPPCPAPPVAGPSVFLFPPKPKDTLMISRTPEVTCVVVDVSHEDPEVQFNWYVDGVEVHNAKTKPREEQFNSTFRVVSVLTVVHQDWLNGKEYKCKVSNKGLPAPIEKTISKTKGQPREPQVYTLPPSREEMTKNQVSLTCLVKGFYPSDISVEWESNGQPENNYKTTPPMLDSDGSFFLYSKLTVDKSRWQQGNVFSCSVMHEALHNHYTQKSLSLSPGK

— patent publication US20100015126A1, “Methods of Binding of Cross-Beta Structures By Chaperones” (priority 2006, published 2010)
